In EP1378570B1 one finds Kd data, which are given here for one substance.

The assay concerns the target murine Flk-1 receptor tyrosine kinase (fetal liver kinase 1), full-length, transiently expressed in COS-1 cells from pCMV-Flk-1 (mouse) (UniProt P35918). Kind of assay: competition of unlabeled VEGF (0 to 7 x 10^-9) with 10 pM 125I-VEGF on COS-1 cells expressing Flk-1; analysis by Munson and Rodbard.

What is called Kd is the constant that tells how readily two partners part at equilibrium. A high value points to a looser complex.

UniProt P35918, sequence (P35918 other isoform, or with tags, fused parts or gaps limits assumed): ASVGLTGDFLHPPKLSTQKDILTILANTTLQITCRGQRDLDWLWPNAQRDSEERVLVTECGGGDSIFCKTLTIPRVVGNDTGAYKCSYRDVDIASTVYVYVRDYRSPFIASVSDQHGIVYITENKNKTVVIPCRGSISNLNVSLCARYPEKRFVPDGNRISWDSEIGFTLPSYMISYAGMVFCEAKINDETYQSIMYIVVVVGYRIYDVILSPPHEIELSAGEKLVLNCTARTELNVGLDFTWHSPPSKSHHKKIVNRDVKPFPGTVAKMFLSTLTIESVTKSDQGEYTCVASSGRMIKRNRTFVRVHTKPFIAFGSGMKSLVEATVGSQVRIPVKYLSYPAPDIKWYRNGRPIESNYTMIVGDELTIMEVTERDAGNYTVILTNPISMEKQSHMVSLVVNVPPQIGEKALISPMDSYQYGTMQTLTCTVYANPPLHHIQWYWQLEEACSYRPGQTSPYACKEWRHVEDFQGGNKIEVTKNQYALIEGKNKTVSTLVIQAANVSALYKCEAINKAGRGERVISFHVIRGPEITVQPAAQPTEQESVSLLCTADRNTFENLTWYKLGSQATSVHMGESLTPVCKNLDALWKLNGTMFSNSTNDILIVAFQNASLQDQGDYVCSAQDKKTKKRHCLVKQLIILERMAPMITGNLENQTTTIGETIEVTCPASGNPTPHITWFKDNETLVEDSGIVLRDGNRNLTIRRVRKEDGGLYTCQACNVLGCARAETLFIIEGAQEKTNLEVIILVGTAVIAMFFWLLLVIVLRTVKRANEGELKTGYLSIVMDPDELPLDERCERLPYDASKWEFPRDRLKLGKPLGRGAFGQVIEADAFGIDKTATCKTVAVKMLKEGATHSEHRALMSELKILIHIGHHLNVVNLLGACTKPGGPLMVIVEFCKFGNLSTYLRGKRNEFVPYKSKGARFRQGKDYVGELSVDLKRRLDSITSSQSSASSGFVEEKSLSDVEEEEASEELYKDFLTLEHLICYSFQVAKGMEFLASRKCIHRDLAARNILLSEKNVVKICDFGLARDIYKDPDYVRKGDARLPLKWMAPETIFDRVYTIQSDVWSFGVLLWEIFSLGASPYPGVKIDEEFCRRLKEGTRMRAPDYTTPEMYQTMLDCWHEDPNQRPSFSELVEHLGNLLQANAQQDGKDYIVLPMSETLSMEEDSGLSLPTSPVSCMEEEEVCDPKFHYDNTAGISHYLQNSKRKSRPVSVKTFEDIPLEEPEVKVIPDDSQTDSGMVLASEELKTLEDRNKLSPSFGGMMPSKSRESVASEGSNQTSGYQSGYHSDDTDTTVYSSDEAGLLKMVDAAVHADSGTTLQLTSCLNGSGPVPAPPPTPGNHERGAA

Turning to “unlabeled VEGF (164 amino acid form), partially purified from conditioned media of COS-1 cells transiently expressing VEGF (from UniProt Q00731 1-392) (ligand)”, the Kd came to 0.1 nM.
